Experimental data: the supplement of paper PMC10567573
± gives the standard deviation.

Experiment: protein stability index of a GFP-peptide fusion (GPS, HEK-293T) (PSI 1-6); higher = more stable
[1] = treatment: DMSO, c terminus: a fixed tail appended
[2] = treatment: MLN4924 1 uM, 8 h, c terminus: a fixed tail appended
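Further: 24-mer peptide tiles fused after GFP, lentivirally expressed, FACS-sorted into six equal bins by GFP/DsRed ratio, decoded by Illumina sequencing, PSI is the read-weighted mean bin number.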

Sequence | protein stability index [1] | protein stability index [2] | protein stability index (treatment: DMSO, c terminus: native) | protein stability index (treatment: MLN4924 1 uM, 8 h, c terminus: native)
EQYERNKSSSSSSSSSSSSSSSSS [TMEM40] | 5.46 ± 0.32 | 5.49 ± 0.27 |  | 
ERAKELYSSGEFSSGRKWGDDAPK [INTS4] | 4.77 ± 0.33 | 4.66 ± 0.14 |  | 
EREEITTKKRKLGKNPDVDTSFLP [FAM50A] | 4.63 ± 0.35 | 4.79 ± 0.24 |  | 
ESCEKNDPLSLLDDSKFPIEDTPL [PCDHGA10] | 5.5 ± 0.34 | 5.463 ± 0.028 |  | 
ESKMYATSPYSDPVVSMDLDPQPI [PTPRD] | 4.18 ± 0.53 | 4.42 ± 0.047 |  | 
ESPSTLQVLPDSESLPRSEIDEKV [MAGEA10] | 5.62 ± 0.19 | 5.63 ± 0.3 |  | 
ESRDRPSCAPSASIPKLKLTRPVP [PWWP2B] | 4.26 ± 0.2 | 4.16 ± 0.14 |  | 
ESVEGVVRILLEHYYKENDPSVRL [INTS4] | 2.22 ± 0.46 | 2.46 ± 0.16 |  | 
ETAPTTVDRTHALMKKIGQCPMRV [CRYL1] | 3.59 ± 0.14 | 3.68 ± 0.2 |  | 
ETRQKKLEVAMEEEGLADEEKKLR [STK38L] | 5.51 ± 0.18 | 5.6 ± 0.21 |  | 
ETSYLEMAAGSEPESVEASPVVVE [KMT2E] | 5.38 ± 0.27 | 5.18 ± 0.34 |  | 
ETVVSYLPLSHIAAQMMDIWVPIK [ACSBG2] | 2.14 ± 0.36 | 2.04 ± 0.14 |  | 
EVLREQAGGDATENFEDVGHSTDA [CYB5A] | 5.57 ± 0.43 | 5.67 ± 0.19 |  | 
EVPEMSPVTCCDVSSNNRLVVTGS [TLE6] | 4.35 ± 0.31 | 4.57 ± 0.1 |  | 
EVSNPSKPGRKTNQLQYMQNVVVK [BRD3] | 3.66 ± 0.11 | 3.79 ± 0.28 |  | 
EWNEKVTQSDLYKKTQETLSQAGQ [TPD52L2] | 4.39 ± 0.35 | 4.4 ± 0.17 |  | 
FAGGFVDFGACDGGLLTGNEKITM [KRT13] | 2.73 ± 0.32 | 2.56 ± 0.079 |  | 
FAQYDSFHVDSAAEYYRLHLEGYH [TNXB] | 2.43 ± 0.81 | 2.26 ± 0.23 |  | 
FARNGALSTHNWTYWQCGQYLGVG [RSAD1] | 2.63 ± 0.66 | 2.17 ± 0.17 |  | 
FATASAAVPVSTSKPSSDLLDLQP [SNAP91] | 4.01 ± 0.28 | 4.1 ± 0.41 |  | 
FAYKDEYEKFKLYLTIILILISFT [TMEM120A] | 2.83 ± 0.35 | 2.46 ± 0.52 |  | 
FCLQKLISLHPFNPWNWGKLAEAY [C8orf76] | 2.85 ± 0.49 | 2.82 ± 1.3 |  | 

Sequence | protein stability index [1] | protein stability index [2] | protein stability index (treatment: DMSO, c terminus: native) | protein stability index (treatment: MLN4924 1 uM, 8 h, c terminus: native)
FDLCDRTFSLKTVLMIAIQLISRM [CSNK1G3] | 2.89 ± 0.21 | 2.54 ± 0.46 |  | 
FEEPEDPSNRSFFSEIISSISDVK [PPP2R2B] | 4.09 ± 0.18 | 4.32 ± 0.15 |  | 
FFKGLVEAVESTLQTPLDIRLKES [TRIM14] | 2.15 ± 0.33 | 2.29 ± 0.28 |  | 
FGAVVRWAEAECQRQQLPVTFGNK [BTBD1] | 2.57 ± 0.3 | 2.84 ± 0.18 |  | 
FGGGCDLTPTYLNQEDAIHFHRTL [CPOX] | 2.62 ± 0.4 | 2.81 ± 0.3 |  | 
FHKDCASRVNNASYCPHCGEESSK [EHMT1] | 3.45 ± 0.15 | 4.05 ± 0.47 |  | 
FKISGMNGIHVCMVFEVLGHHLLK [SRPK2] | 3.01 ± 0.34 | 2.92 ± 0.31 |  | 
FKPACMSEIKNLERYMCSRFFIDF [TENT5D] | 2.55 ± 0.61 | 2.42 ± 0.58 |  | 
FLCAAGDAGEESRVQVLKNEVRRG [TIAF1] | 4.18 ± 0.31 | 4.22 ± 0.11 |  | 
FLLQNDANPSIRDKEGYNSIHYAA [ANKRD44] | 2.75 ± 0.25 | 2.85 ± 0.32 |  | 
FLLVLAVVAGDTVSTGSTDNSPTS [ADAMTSL2] | 2.5 ± 0.45 | 2.28 ± 0.43 |  | 
FLQKVAQMPQEEVELLPPAPKGKG [BRD3] | 4.24 ± 0.17 | 4.32 ± 0.13 |  | 
FLRSIDQFANLVLHQTVERIHVGK [LSM1] | 2.95 ± 0.55 | 2.46 ± 0.39 |  | 
FNIAGTVVKYRRPMDVYETGIEYI [ADAMTSL2] | 2.16 ± 0.33 | 1.8 ± 0.046 |  | 
FPEALDELPLPPFLQPLDLTGKG [ANKRD9] |  |  | 3.43 ± 0.22 | 3.52 ± 0.12
FPETTFISVTAYQNPQITQLKIAA [TBX6] | 2.58 ± 0.72 | 2.73 ± 0.59 |  | 
FPHSGKDCLLCFPETLPESSLFSV [C8orf76] | 2.21 ± 0.52 | 2.36 ± 0.32 |  | 
FPPEGNMEDKEMTGPQLPESLEDV [ZNF263] | 5.58 ± 0.21 | 5.48 ± 0.22 |  | 
FPTVVWTWWIMFLSTFSVPYFLFQ [SOAT1] | 3.1 ± 0.56 | 2.99 ± 0.45 |  | 
FREVYVGKETMCTVDGLHFNSTYN [TRIM9] | 2.23 ± 0.098 | 2.4 ± 0.28 |  | 
FRVGKKIGCGNFGELRLGKNLYTN [CSNK1G3] | 2.06 ± 0.19 | 2.28 ± 0.087 |  | 
FSDSRSNNDDDEDEDDEDEDEDED [TAF7L] | 5.7 ± 0.19 | 5.58 ± 0.41 |  | 

Sequence | protein stability index [1] | protein stability index [2] | protein stability index (treatment: DMSO, c terminus: native) | protein stability index (treatment: MLN4924 1 uM, 8 h, c terminus: native)
FSLACSLMGPSRMSLFSLYMVQDQ [M1AP] | 3.19 ± 0.42 | 2.99 ± 0.32 |  | 
FTFLSAKCLQGNADGDGGGGQCCR [PCDHGC5] | 2.97 ± 0.18 | 3.29 ± 0.26 |  | 
FVIKMPVMYRIGCLRDDVVFFIYL [CLPTM1] | 3.05 ± 0.39 | 3.06 ± 0.25 |  | 
FYFENALSKSNKPIHTIILNPHVH [CAMK2D] | 2.01 ± 0.58 | 2.42 ± 0.044 |  | 
GAELHLQPLEGGTPNSAGGPGAHI [ADAMTS4] | 4.51 ± 1.1 | 4.74 ± 0.36 |  | 
GAGIIVTEAGGVLMDVTGGPFDLM [IMPA1] | 2.28 ± 0.4 | 2.48 ± 0.39 |  | 
GAPSPGSSDVSTAGTGASRSSHSS [ELF3] | 5.33 ± 0.29 | 5.32 ± 0.14 |  | 
GCASFIYLRPQSNYSSSQDALISV [OR10K2] | 2.65 ± 0.81 | 2.54 ± 0.61 |  | 
GDPRPKIVWNKKGKKVSNQRFEVI [PTPRD] | 2.94 ± 0.24 | 3.46 ± 0.64 |  | 
GEDEENREHRVRRIHVRRHITHDE [KCTD13] | 5.23 ± 0.2 | 5.1 ± 0.29 |  | 
GEGRSRGSANDYKDTLGKGSSLSA [KRT71] | 4.65 ± 0.52 | 4.96 ± 0.35 |  | 
GFFEEKGAIFCPPCYDVRYAPSCA [PDLIM7] | 2.26 ± 0.22 | 2.58 ± 0.3 |  | 
GFTPDRLSSSCCHTVPDFHLSSPA [PLK2] | 3.02 ± 0.22 | 3.15 ± 0.16 |  | 
GGIETGSITEMFGEFRTGKTQICH [RAD51] | 3.63 ± 0.34 | 3.71 ± 0.51 |  | 
GGTPARSGTTLISVIVLDINDNAP [PCDHGC5] | 2.66 ± 1.1 | 2.64 ± 1.6 |  | 
GHGYDSKKQQELTAAVLGLICEGL [ZBED1] | 2.34 ± 0.31 | 2.09 ± 0.29 |  | 
GHKRKQPLPKRVAKVPRPPSTLLP [FOXJ1] | 4.02 ± 0.49 | 3.86 ± 0.041 |  | 
GIESMDQCRHTLEQHNWNIEAAVQ [FAF2] | 3.78 ± 0.2 | 4.08 ± 0.19 |  | 
GIMCLKRLNYDRKELEKRREESQH [PPFIA4] | 3.69 ± 0.31 | 3.62 ± 0.4 |  | 
GIQQLLQAEKRAAEKVSEARKRKN [ATP6V1G1] | 4.12 ± 0.62 | 3.84 ± 0.74 |  | 
GKYDSGIPPYSRASLKGYQWLKDK [KCNAB2] | 3.26 ± 0.073 | 3.23 ± 0.24 |  | 
GLCKQDGQLRVFGAGLLSSISELK [TPH1] | 2.05 ± 0.28 | 2.39 ± 0.4 |  | 

Sequence | protein stability index [1] | protein stability index [2] | protein stability index (treatment: DMSO, c terminus: native) | protein stability index (treatment: MLN4924 1 uM, 8 h, c terminus: native)
GLDVLLAQEVRPRRWKLQVLDLRK [PRAME] | 2.31 ± 0.46 | 2.33 ± 0.48 |  | 
GLFVPSLLCGAAFGRLVANVLKSY [CLCN6] | 2.2 ± 0.55 | 2.37 ± 0.64 |  | 
GLLLRGAVDGILHMFTPKLDKMLD [SLC6A17] | 2.35 ± 0.47 | 2.43 ± 0.66 |  | 
GLLQLDHRGLRCSWEGLAVLDSLL [RSAD1] | 2.31 ± 0.56 | 2.06 ± 0.31 |  | 
GLLSKTAGFSPDCIMDDAINILQN [INTS4] | 2.91 ± 0.33 | 2.89 ± 0.17 |  | 
GLPSSELDAVENQLKWASWELHSL [ZNF24] | 2.98 ± 0.15 | 3 ± 0.38 |  | 
GLSESSGPHTISNQNNYRLLSCGK [ACSBG2] | 4.55 ± 0.41 | 4 ± 0.28 |  | 
GLSSVSPSHLLLPPDTVSRTGLEK [SPDEF] | 4.52 ± 0.23 | 4.33 ± 0.2 |  | 
GNGRPGRPSQYRPDGLRSGDGVPP [LCOR] | 4.59 ± 0.31 | 4.79 ± 0.2 |  | 
GNNPNGREAKMICFKSVAKTPYDT [ELOA2] | 3.84 ± 0.43 | 3.93 ± 0.3 |  | 
GNQLQLNQHCLDTAFNFFKMAVSR [BRF1] | 2.25 ± 0.36 | 1.96 ± 0.28 |  | 
GPDGHLPAVATLCDLFDREIVVTI [ESRRA] | 3.01 ± 0.7 | 2.91 ± 0.41 |  | 
GPGDGPPEIAQNFSAPDPPRPRPV [SMTNL2] | 5.05 ± 0.19 | 5.03 ± 0.24 |  | 
GPMPMSMPNVMTGTMGMAPLGNTP [CLINT1] | 4.03 ± 0.21 | 4.02 ± 0.31 |  | 
GPSLVPGKTPTVRAALICLTLVLV [CD207] | 2.28 ± 0.44 | 2.73 ± 0.62 |  | 
GQLDEKEKDLVGLAQIAEVLEMFD [RHOBTB1] | 3.4 ± 0.37 | 3.61 ± 0.58 |  | 
GQTSGAREPPQAVSIKEAAGSSNL [VENTX] | 5.26 ± 0.26 | 5.15 ± 0.25 |  | 
GRGDEASEEGQNGSSPKSKTKWTK [ADD1] | 5.22 ± 0.16 | 5.36 ± 0.36 |  | 
GRTENGALAPKQELPSALESHEVP [ZNF24] | 5.24 ± 0.1 | 5.27 ± 0.086 |  | 
GSAPPRATPGGGTGEAARPHKGLN [PCDHGC5] | 5.19 ± 0.34 | 5.26 ± 0.32 |  | 
GSARYDFSHEILRDEESFFGERRI [ALKBH7] | 3.75 ± 0.29 | 3.71 ± 0.5 |  | 
GSLKSVEVREPALRPAKRELRGAE [SPSB4] | 4.98 ± 0.37 | 5.03 ± 0.14 |  | 
